In general, Kd refers to a measure of binding affinity in units of concentration. Higher therefore signals weaker binding.

Results on ten molecules are retold here after US20210324099A1 (Chugai, published 2021).

Substitutions are numbered along the chain they refer to.

One assay addresses T1, hCD137.1-F-G1d (human).
T1 construct: Portion of the human CD137 extracellular region linked to an antibody constant region
Kind of assay: ELISA; 500 uM kynurenine, Ab 10 ug/mL.

Another assay concerns the target T2, hCD137.1.2-F.G1d (human).
T2 construct: Portion of the human CD137 extracellular region linked to an antibody constant region
Kind of assay: ELISA; 500 uM kynurenine, Ab 10 ug/mL. For orientation: ELISA stands for enzyme-linked immunosorbent assay.

A further assay addresses T3, hCD137.2.3-F.G1d (human).
T3 construct: Portion of the human CD137 extracellular region linked to an antibody constant region
Kind of assay: ELISA; 500 uM kynurenine, Ab 10 ug/mL.

In another assay the target is T4, hCD137.3.4-F.G1d (human).
T4 construct: Portion of the human CD137 extracellular region linked to an antibody constant region
Kind of assay: ELISA; 500 uM kynurenine, Ab 10 ug/mL.

Assay [1] concerns the target T5, hCD137(FXa digested) (human, UniProt Q07011 24-186).
T5 construct: also called human CD137 extracellular domain
Kind of assay: SPR 37C; ATP 100 uM.
Procedure: (§1) Measurements of human CD137 binding were taken at 37° C. using 20 mM ACES (pH 7.4), 150 mM NaCl, 2 mM MgCl₂, and 0.05% Tween20 as running buffer. At first, antibodies were captured by interacting antibody solutions prepared in running buffer with the rabbit anti-mouse IgG (Thermo Scientific)-immobilized Series S Sensor Chip CMS (GE Healthcare). The human CD137-binding activity in the presence of ATP and in the absence of ATP was then assessed by interacting with a human CD137 solution prepared in running buffer supplemented with a desired concentration of ATP, or a human CD137 solution prepared in running buffer without ATP. […] The chip was regenerated using 25 mM NaOH and 10 mM Glycine-HCl (pH 1.5), and measurements were performed by repeatedly capturing antibodies. Dissociation constant (KD) of the respective antibodies for human CD137 was calculated using Biacore T200 Evaluation Software 2.0. Specifically, the association rate constant ka (L/mol/s) and the dissociation rate constant kd (1/s) were calculated by global fitting of the sensorgrams obtained by measurement with the 1:1 Langmuir binding model, and the dissociation constant KD (mol/L) was calculated from these values.

Assay [2] has as its target T5, hCD137(FXa digested). Kind of assay: SPR 37C; ATP 1 uM.
Procedure: as §1
The target of assay [3] is T5, hCD137(FXa digested). Kind of assay: SPR 37C; ATP 10 uM.
Procedure: as §1
In assay [4] the target is T5, hCD137(FXa digested). Kind of assay: SPR 37C; no ATP.
Procedure: as §1
The target in assay [5] is T6, hFcgRIIaH (human, UniProt P12318 34-217).
T6 construct: extracellular domain; also called human FcγRIIa type H (H131)
T6 sequence (looked up): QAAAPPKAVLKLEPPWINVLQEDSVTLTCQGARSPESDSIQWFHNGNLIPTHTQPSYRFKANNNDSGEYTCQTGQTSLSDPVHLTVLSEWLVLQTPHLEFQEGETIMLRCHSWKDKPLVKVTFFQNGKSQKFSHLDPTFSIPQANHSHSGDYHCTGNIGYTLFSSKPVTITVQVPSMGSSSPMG
Kind of assay: SPR 25C.

For assay [6], the target named is T7, hFcgRIa (human, UniProt P12314 16-292).
T7 construct: extracellular domain; also called human FcγRIa; FcγRI
Kind of assay: SPR 25C.

The target of assay [7] is T8, hFcgRIIIaF (human, UniProt P08637 17-208).
T8 construct: extracellular domain; also called human FcγRIIIa allotype F158
Kind of assay: SPR 25C.

Assay [8] has as its target T9, hFcgRIIaR (human, UniProt P12318 34-217).
T9 construct: extracellular domain; also called human FcγRIIa type R (R131)
T9 sequence (looked up): T6 sequence (looked up) with H134R
Kind of assay: SPR 25C.

In assay [9] the target is T10, hFcgRIIb (human, UniProt P31994 43-217).
T10 construct: extracellular domain; also called human FcγRIIb
T10 sequence (looked up): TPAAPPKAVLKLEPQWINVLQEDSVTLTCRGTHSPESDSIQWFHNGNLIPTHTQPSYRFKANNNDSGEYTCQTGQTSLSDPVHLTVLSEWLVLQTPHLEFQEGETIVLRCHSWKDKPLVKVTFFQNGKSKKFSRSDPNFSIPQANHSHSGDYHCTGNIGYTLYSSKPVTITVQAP
Kind of assay: SPR 25C.

The target in assay [10] is T11, hFcgRIIIaV (human, UniProt P08637 17-208).
T11 construct: extracellular domain; also called human FcγRIIIa allotype V158
Kind of assay: SPR 25C.

For assay [11], the target named is T6, hFcgRIIaH. Kind of assay: SPR 25C; relative to A375-G1T3/B167-Lamlib.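 Further: SPR with antibody captured on an anti-human Fab-lambda chip, human FcγR analyte at 8 nM for FcγRIa or 1000 nM for the others, pH 7.4, FcγR RU per captured antibody unit.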
Procedure: (§2) Biacore T200 (GE Healthcare) was used to evaluate the binding activity to the respective human Fcγ receptor (hereafter referred to as FcγR). Measurement was performed at 25° C. using 50 mM phosphate, 150 mM NaCl, 0.05 w/v %-P20, pH 7.4 as buffer. About 1000 RU of antibody was captured using a sensor chip immobilized with CaptureSelect™ Human Fab-lambda Kinetics Biotin Conjugate (Thermo Fisher Scientific) as a molecule for ligand capturing. Human FcγR was diluted to 8 nM for FcγRIa and 1000 nM for other FcγR in the measurement buffer, and it was interacted to the captured antibody. The binding activity of each antibody to FcγR was assessed by calculating the binding amount of FcγR (RU) per unit amount of antibody using Biacore T200 Evaluation Software 2.0.
Assay [12] concerns the target T7, hFcgRIa. Kind of assay: SPR 25C; relative to A375-G1T3/B167-Lamlib.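 Further: SPR with antibody captured on an anti-human Fab-lambda chip, human FcγR analyte at 8 nM for FcγRIa or 1000 nM for the others, pH 7.4, FcγR RU per captured antibody unit.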
Procedure: as §2
Assay [13] addresses T8, hFcgRIIIaF. Kind of assay: SPR 25C; relative to A375-G1T3/B167-Lamlib.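 Further: SPR with antibody captured on an anti-human Fab-lambda chip, human FcγR analyte at 8 nM for FcγRIa or 1000 nM for the others, pH 7.4, FcγR RU per captured antibody unit.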
Procedure: as §2
Assay [14] addresses T9, hFcgRIIaR. Kind of assay: SPR 25C; relative to A375-G1T3/B167-Lamlib.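 Further: SPR with antibody captured on an anti-human Fab-lambda chip, human FcγR analyte at 8 nM for FcγRIa or 1000 nM for the others, pH 7.4, FcγR RU per captured antibody unit.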
Procedure: as §2
In assay [15] the target is T10, hFcgRIIb. Kind of assay: SPR 25C; relative to A375-G1T3/B167-Lamlib.
Procedure: as §2
The target in assay [16] is T11, hFcgRIIIaV. Kind of assay: SPR 25C; relative to A375-G1T3/B167-Lamlib.
Procedure: as §2
A further assay deals with human FcRn (human, UniProt P55899 24-290; P61769 21-119, limits assumed). Kind of assay: SPR 25C pH 6.0, steady state.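 Further: antibody captured on chip via anti-human Fab-lambda ligand, human FcRn injected as analyte in 50 mM phosphate buffer with 150 mM NaCl and P20.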
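Wherever binding per 1RU of antibody is given: biacore SPR with antibody captured on an anti-human Fab lambda chip, human FcγR injected at 1000 nM (FcγRIa at 8 nM) in pH 7.4 phosphate buffer.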

T2 sequence (chain, as listed by the source limits assumed): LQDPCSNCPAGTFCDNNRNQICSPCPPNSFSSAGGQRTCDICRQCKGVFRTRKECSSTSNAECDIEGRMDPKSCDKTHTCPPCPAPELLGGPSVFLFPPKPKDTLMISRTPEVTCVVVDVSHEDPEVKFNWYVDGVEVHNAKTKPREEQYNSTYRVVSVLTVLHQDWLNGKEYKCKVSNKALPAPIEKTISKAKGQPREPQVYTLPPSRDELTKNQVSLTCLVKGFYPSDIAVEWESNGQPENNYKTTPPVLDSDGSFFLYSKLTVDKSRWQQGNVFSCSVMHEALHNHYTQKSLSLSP
T1 sequence (chain, as listed by the source limits assumed): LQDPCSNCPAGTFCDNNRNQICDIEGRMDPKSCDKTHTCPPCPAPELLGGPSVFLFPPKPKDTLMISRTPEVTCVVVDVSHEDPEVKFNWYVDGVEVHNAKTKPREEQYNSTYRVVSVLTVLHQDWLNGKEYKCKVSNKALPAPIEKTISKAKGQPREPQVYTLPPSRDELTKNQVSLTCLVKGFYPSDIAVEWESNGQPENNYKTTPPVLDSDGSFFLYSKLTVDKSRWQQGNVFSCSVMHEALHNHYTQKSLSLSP
T7 sequence (P12314 16-292): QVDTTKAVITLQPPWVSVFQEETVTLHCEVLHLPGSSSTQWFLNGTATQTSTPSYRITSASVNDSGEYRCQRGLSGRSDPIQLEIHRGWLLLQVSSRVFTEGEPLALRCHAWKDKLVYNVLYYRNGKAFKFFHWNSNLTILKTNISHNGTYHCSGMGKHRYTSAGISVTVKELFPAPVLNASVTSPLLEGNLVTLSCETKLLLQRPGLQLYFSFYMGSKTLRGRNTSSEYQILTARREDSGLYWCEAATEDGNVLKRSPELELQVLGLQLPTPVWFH
T8 sequence (P08637 17-208): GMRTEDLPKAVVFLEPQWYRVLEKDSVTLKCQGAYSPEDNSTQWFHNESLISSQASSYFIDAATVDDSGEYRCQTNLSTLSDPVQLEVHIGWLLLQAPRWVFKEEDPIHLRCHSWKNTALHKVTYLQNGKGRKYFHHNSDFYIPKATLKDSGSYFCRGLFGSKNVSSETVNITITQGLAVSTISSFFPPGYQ
T11 sequence (P08637 17-208 F176V): as the sequence (P08637 17-208) above, with F160V counted along it
T3 sequence (chain, as listed by the source limits assumed): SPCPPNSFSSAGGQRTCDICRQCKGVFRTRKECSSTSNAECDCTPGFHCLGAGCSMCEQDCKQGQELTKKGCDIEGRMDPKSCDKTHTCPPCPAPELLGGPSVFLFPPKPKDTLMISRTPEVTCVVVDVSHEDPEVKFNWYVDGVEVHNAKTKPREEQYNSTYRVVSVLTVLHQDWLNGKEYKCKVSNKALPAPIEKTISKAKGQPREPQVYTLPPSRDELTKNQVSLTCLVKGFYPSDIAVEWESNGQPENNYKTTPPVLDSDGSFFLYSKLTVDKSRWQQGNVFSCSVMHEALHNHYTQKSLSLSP
Sequence of human FcRn (P55899 24-290 limits assumed, chain 1 of 2): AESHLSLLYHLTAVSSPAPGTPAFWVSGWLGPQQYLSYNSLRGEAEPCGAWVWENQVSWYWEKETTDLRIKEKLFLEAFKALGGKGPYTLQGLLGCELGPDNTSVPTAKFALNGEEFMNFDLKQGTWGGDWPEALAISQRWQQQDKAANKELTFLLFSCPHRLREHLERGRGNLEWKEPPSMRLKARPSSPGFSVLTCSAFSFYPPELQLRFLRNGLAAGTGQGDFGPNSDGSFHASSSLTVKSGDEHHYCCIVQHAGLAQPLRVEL
Sequence of human FcRn (P61769 21-119 limits assumed, chain 2 of 2): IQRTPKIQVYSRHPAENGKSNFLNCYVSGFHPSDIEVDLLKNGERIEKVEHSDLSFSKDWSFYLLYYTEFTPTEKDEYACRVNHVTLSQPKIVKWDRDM
Procedure for hCD137.1-F-G1d: (§3) Whether the obtained antibodies bind to antigens having a partial sequence of CD137 was assessed by ELISA. […] After the unbound antigens were removed from the plates by washing each well of the plates with the Wash Buffer, the wells were blocked with 50 μL of Blocking Buffer (BlockAce-containing TBS) for one hour or more. To wells from which the Blocking Buffer was removed, each well was supplemented with 10 μL of the purified antibodies prepared at 10 μg/mL in TBS with a final concentration of 500 μM L-kynurenine or TBS with a final concentration of 500 μM kynurenine, and it was left at rest for one hour. AP-conjugated anti-human Kappa antibodies (BIOSOURCE) diluted in TBS with a final concentration of 500 μM kynurenine were added to each well after washing with the Wash Buffer containing a final concentration of 500 μM kynurenine (TBS with 0.1% Tween20). After one hour of incubation, the BluePhos phosphate substrate (KPL) was added after washing with Wash Buffer containing 500 μM kynurenine. Color development of the solution in each well was measured by absorbance at 620 nm after the color development reaction of the solution in each well was stopped by adding the BluePhos Stop Solution. The ratio of absorbance by setting the value of the well with an antibody concentration of 0 μg/mL to 1 is shown.
Procedure for hCD137.1.2-F.G1d: as §3
Procedure for hCD137.2.3-F.G1d: as §3
Procedure for hCD137.3.4-F.G1d: as §3

B1: dBBK026-P253 (antibody, human IgG1, kappa, V domains shown)
VH: QVQLVQSGAEVKKPGSSVKVSCKASGGEFSNYFISWVRQAPGQGLEWMGMVHPIEGWAVYAQKFQGRVTITADESTSTAYMELSSLRSEDTAVYYCARDRPVFCCPRGAFDIWGQGTLVTVSS
VL: DIVMTQSPLSLPVTPGEPASISCRSSQSLVSPGDNTFLSWYLQKPGQSPQLLIYEIERRFYGVPDRFSGSGSGTDFTLKISRVEAEDVGVYYCMQASTFPRTFGQGTKVEIKR
As to B1, the absorbance ratio with hCD137.1-F-G1d amounted to 1; with hCD137.1.2-F.G1d, 1.2; with hCD137.2.3-F.G1d, 1.1.

B2: dBBK070-P253 (antibody, human IgG1, kappa, V domains shown)
VH: QVQLVQSGAEVKKPGSSVKVSCKASGGWFSHYSISWVRQAPGQGLEWMGVVWPIRSFATYAQKFQGRVTITADESTSTAYMELSSLRSEDTAVYYCARDNPVTSWPHGAFDIWGQGTLVTVSS
VL: B1 VL with S31R, G33F, D34G, E57S, R58T, S97H, T98Q
For the molecule B2, the figures for the absorbance ratio with hCD137.1-F-G1d and with hCD137.3.4-F.G1d were 1.8 and 1.2, respectively.

B3: dBBK060-P253 (antibody, human IgG1, kappa, V domains shown)
VH: QVQLVQSGAEVKKPGSSVKVSCKASGGDFSNYVISWVRQAPGQGLEWMGFINPIYGAAGYAQKFQGRVTITADESTSTAYMELSSLRSEDTAVYYCARDEPVASLPHGAFDIWGQGTLVTVSS
VL: B1 VL with S31D, G33W, D34G, E57S, R58N, S97K, T98D, Q105P
In the case of B3, the absorbance ratio with hCD137.1-F-G1d was 1.2; in the assay with hCD137.1.2-F.G1d it was 1.4; with hCD137.2.3-F.G1d, 1.2.

B4: dBBK051-P253 (antibody, human IgG1, kappa, V domains shown)
VH: QVQLVQSGAEVKKPGSSVKVSCKASGGGFSSYGISWVRQAPGQGLEWMGALFPISSQASYAQKFQGRVTITADESTSTAYMELSSLRSEDTAVYYCARDRPVDYVPHGAFDIWGQGTLVTVSS
VL: B1 VL
As to B4, the absorbance ratio with hCD137.1-F-G1d and in the assay with hCD137.1.2-F.G1d was 1.2 throughout.

B5: dBBK101-P253 (antibody, human IgG1, kappa, V domains shown)
VH: QVQLVQSGAEVKKPGSSVKVSCKASGGAFSYYLISWVRQAPGQGLEWMGFVDPIRGGAFYAQKFQGRVTITADESTSTAYMELSSLRSEDTAVYYCARDRPVNAAPRGAFDIWGQGTLVTVSS
VL: B1 VL with S31G, P32D, G33R, D34G, F37Y, E57G, R58S, R59I, S97A, T98E
For B5, the absorbance ratio with hCD137.1-F-G1d was 1.3; with hCD137.1.2-F.G1d, 1.2.

B6: 20H4.9-MB110/20H4.9LC-mk0 (antibody, mouse IgG1, kappa)
heavy: QVQLQQWGAGLLKPSETLSLTCAVYGGSFSGYYWSWIRQSPEKGLEWIGEINHGGYVTYNPSLESRVTISVDTSKNQFSLKLSSVTAADTAVYYCARDYGPGNYDWYFDLWGRGTLVTVSSAKTTPPSVYPLAPGSAAQTNSMVTLGCLVKGYFPEPVTVTWNSGSLSSGVHTFPAVLQSDLYTLSSSVTVPSSTWPSETVTCNVAHPASSTKVDKKIVPRDCGCKPCICTVPEVSDVFIFPPKPKDVLTITLTPKVTCVVVDISKDDPEVQFSWFVDDVEVHTAQTQPREEQFNSTFRSVSELPIMHQDWLNGKEFKCRVNSAAFPAPIEKTISKTKGRPKAPQVYTIPPPKEQMAKDKVSLTCMITDFFPEDITVEWQWNGQPAENYKNTQPIMDTDGSYFVYSKLNVQKSNWEAGNTFTCSVLHEGLHNHHTEKSLSHSPGK
light: EIVLTQSPATLSLSPGERATLSCRASQSVSSYLAWYQQKPGQAPRLLIYDASNRATGIPARFSGSGSGTDFTLTISSLEPEDFAVYYCQQRSNWPPALTFGGGTKVEIKRADAAPTVSIFPPSSEQLTSGGASVVCFLNNFYPKDINVKWKIDGSERQNGVLNSWTDQDSKDSTYSMSSTLTLTKDEYERHNSYTCEATHKTSTSPIVKSFNRNEC
notes: also called NS1-MB110
In the case of B6, the dissociation constant Kd worked out at 51.9 nM with hCD137(FXa digested) [1], 56.5 nM in the assay with hCD137(FXa digested) [2], 53.9 nM with hCD137(FXa digested) [3] and 61 nM with hCD137(FXa digested) [4].

B7: 20H4.9-MB492/20H4.9LC-mk0 (antibody, mouse IgG1, kappa)
heavy: B6 heavy with T231E, V232P, P233N, S236E, N322D
light: B6 light
notes: also called NS1-MB492
Consider B7, for which the Kd stood at 50.4 nM with hCD137(FXa digested) [1], 54.9 nM in the assay with hCD137(FXa digested) [2], 53.5 nM with hCD137(FXa digested) [3] and 61.6 nM in the assay with hCD137(FXa digested) [4].

B8: 20H4.9-mIgG1/20H4.9LC-mk0 (antibody)
heavy: B6 heavy with D237S
light: B6 light
notes: also called NS1-mIgG1
On to B8, for which the equilibrium dissociation constant (Kd) was found to be 53.6 nM with hCD137(FXa digested) [1], 56.2 nM in the assay with hCD137(FXa digested) [2], 54.4 nM with hCD137(FXa digested) [3] and 61.7 nM in the assay with hCD137(FXa digested) [4].

B9: A375-TT14/B167-Lamlib (antibody, human IgG1, lambda)
heavy: EVQLVESGGGLVKPGGSLRLSCAASGFTFSTFTMNWVRQAPGKGLEWVSSISSKSTYIEYADSFKVRFTISRDNAKNSLYLQMNSLRAEDTAVYYCARYGAKNFLNWVFDYWGQGTLVTVSSASTKGPSVFPLAPSSKSTSGGTAALGCLVKDYFPEPVTVSWNSGALTSGVHTFPAVLQSSGLYSLSSVVTVPSSSLGTQTYICNVNHKPSNTKVDKKVEPKSCDKTHTCPPCPAPEYLGGDSVFLFPPKPKDVLMISRTPEVTCVVIDVSHEDPEVKFNWYVDGVEVHNAKTKPREEQYNSTYRVVSVLPVLHQDWLNGKEYKCKVSNKALPKPIEKTISKAKGQPREPQVYTLPPSREEMTKNQVSLTCLVKGFYPSDIAVEWESNGQPENNYKTTPPVLDSDGSFFLYSKLTVDKSRWQQGNVFSCSVMHEALHNHYTQKSLSLSP
light: QSALTQPPSASGSPGQTVTISCTGTRYDVGYYEYVSWYQQHPGKAPKLMIYETSKRLSGVPDRFSGSKSGNTASLTVSGLQAEDEADYYCSSYRYEHQVSFGGGTKLTVLGQPKAAPSVTLFPPSSEELQANKATLVCLISDFYPGAVTVAWKADSSPVKAGVETTTPSKQSNNKYAASSYLSLTPEQWKSHRSYSCQVTHEGSTVEKTVAPTECS
notes: copies: 2 + 2
In the case of B9, the “binding per 1RU of antibody” value is 0.0042 RU with hFcgRIIaH [5]; 0.0045 RU with hFcgRIa [6]; 0 RU in the assay with hFcgRIIIaF [7]; 0.0067 RU with hFcgRIIaR [8]; 0.0805 RU in the assay with hFcgRIIb [9]; 0.0003 RU with hFcgRIIIaV [10]. In addition, the relative binding amount with hFcgRIIaH [11] amounted to 0.07; with hFcgRIa [12], 0.05; with hFcgRIIIaF [13], 0; with hFcgRIIaR [14], 0.14; in the assay with hFcgRIIb [15], 7.34; with hFcgRIIIaV [16], 0. Moreover, the Kd with human FcRn amounted to 1770 nM.

B10: A375-TT16/B167-Lamlib (antibody, human IgG1, lambda)
heavy: B9 heavy with G242D, I269V
light: B9 light
notes: copies: 2 + 2
On to B10, for which the “binding per 1RU of antibody” value with hFcgRIIaH [5] was 0.0126 RU; with hFcgRIa [6], 0.0034 RU; with hFcgRIIIaF [7] it was 0.0001 RU; in the assay with hFcgRIIaR [8] it was 0.0359 RU; with hFcgRIIb [9], 0.109 RU; with hFcgRIIIaV [10], -0.0002 RU. Moreover, the relative binding amount with hFcgRIIaH [11] is 0.22; with hFcgRIa [12] it was 0.04; with hFcgRIIIaF [13], 0; with hFcgRIIaR [14], 0.77; with hFcgRIIb [15], 9.94; in the assay with hFcgRIIIaV [16], 0. The Kd with human FcRn worked out at 1510 nM.
